From article PMC5768801, “The PII signaling protein from red algae represents an evolutionary link between cyanobacterial and Chloroplastida PII proteins” (Scientific Reports, 2018)

Legend:
[1] = system: PipX; test: Pull-down analysis of PipX binding to PII proteins; parameters: species or system Synechocystis sp. PCC 6803; conditions: 10 µM proteins, 1 mM ADP, Strep-Tactin column, Tricine-SDS-PAGE
Text: In cyanobacteria, PipX is the second known receptor of PII signaling. We questioned whether red algal PII proteins have lost or retained the ability to bind to PipX. To test this possibility, we first analyzed complex formation using pull-down experiments (Supplementary Fig. S3A and B). The PII protein from Synechocystis sp. PCC 6803 (ScPII) was mixed with PipX in the presence of ADP and then the Strep-tagged PII was immobilized on the Strep-Tactin II column (Supplementary Fig. S3A). After extensive washes, the proteins were eluted with desthiobiotin and analyzed by Tricine-SDS-PAGE. Both proteins were detected in the elution. Thus, confirming previous studies[16]–[18], cyanobacterial PII was bound to PipX. When PpPII in the presence of PipX was immobilized on the column, no PipX signal was detected in the elution (Supplementary Fig. S3B).
For complex formation, the binding reactions were done in 300 μl of buffer (100 mM Tris HCl, pH 8.0, 150 mM NaCl, 1 mM EDTA) by adding 10 µM of purified proteins: His6-ScPipX and Strep-tag ScPII or Strep-tag PpPII. […] The eluted fractions were analyzed by Tricine-SDS PAGE[51] and stained with SimplyBlue™ SafeStain (Invitrogen).
(§1) Figure S3. […] Complex formation between PipX and ScPII (A) or PpPII (B) was assessed by pull-down. […] (C) Complex formation between PipX and PII proteins was assessed by SPR. […]

[2] = target: T1, ScNAGK (Synechocystis sp., UniProt P73326); test: Coupled NAGK activity assay, ScNAGK; format: biochemical, Synechocystis sp. PCC 6803
T1 sequence (P73326 1-297): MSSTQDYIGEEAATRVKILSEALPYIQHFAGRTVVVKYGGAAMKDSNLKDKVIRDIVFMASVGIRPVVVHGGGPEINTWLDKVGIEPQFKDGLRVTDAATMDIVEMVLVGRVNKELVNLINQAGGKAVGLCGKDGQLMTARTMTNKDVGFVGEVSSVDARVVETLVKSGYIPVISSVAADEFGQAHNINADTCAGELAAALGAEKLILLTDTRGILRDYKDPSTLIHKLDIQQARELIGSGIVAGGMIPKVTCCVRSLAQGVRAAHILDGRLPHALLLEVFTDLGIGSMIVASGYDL
Protocol: The assess the activity of ScNAGK was measured with an enzyme assay, in which the ADP production was coupled to the NADH oxidation by the auxiliary enzymes pyruvate kinase and lactate dehydrogenase according to previously described procedure[32],[50]. […] The oxidation reaction of NADH was recorded for 10 min using spectrophotometer (SPECORD 210 PLUS, Analytik Jena AG) at 340 nm. […] The NADH molar absorption coefficient is 6178 L mol^−1 cm^−1 for at 340 nm, which was used for calculation. […] From the velocity slopes, the enzymatic constants Km, Kcat and IC50 were calculated using the Graph-Pad Prism software (GraphPad Software, USA).

[3] = system: ScPipX; test: SPR analysis of PipX binding to PII proteins; parameters: species or system Synechocystis sp. PCC 6803; conditions: His-tagged ScPipX immobilized, 200 nM PII protein, ADP
Protocol: Additionally, we assessed whether PpPII could bind to PipX by surface plasmon resonance (SPR) spectroscopy (Supplementary Fig. S3C). The N-terminally His-tagged ScPipX was immobilized on a Ni-HTG sensor chip and probed with ScPII together with effector molecule ADP. Interaction between PpPII and PipX was not observed.
SPR experiments were conducted using a ProteOn XPR36 system (Bio-Rad) in HBS buffer (10 mM HEPES, 150 mM NaCl, 1 mM MgCl2, and 0.005% Tween 20, pH 7.5) at 25 °C. Immobilization of ligand, 1 µM His6-PipX (200 µl), was performed on a Ni^+-loaded HTG sensor chip (Bio-Rad Laboratories) in the vertical orientation into the channel L2, and the continuous running buffer was used at a flow rate of 30 µl/min. The immobilization level was approximately 3000 resonance units (RU). […] The binding of PII proteins to PipX was recorded as a response signal difference of L2 and L1. All binding sensorgrams were collected, processed and analyzed using the integrated ProteOn Manager software (Bio-Rad Laboratories).
as §1

B1: PpPII: PII from the red alga Porphyra purpurea, recombinant Strep-tagged or His-tagged protein (protein)
chain: MKKIEAIIRPFKLNEVKLALVKGGIGGMTVVKVSGFGRQKGQTERYKGSEYSIDIIDKIKIEIIVSDDKVNSITEIIIKTAKTGEIGDGKIFISDVEQVIRIRTNDLNSAAL
modifications: left off: Strep-tag II, C-terminal, kept
notes: PII from the red alga Porphyra purpurea, recombinant Strep-tagged or His-tagged protein
- complex formation with PipX (pull-down) [1]: did not interact with PipX
- raise of the IC50 for arginine on addition of PpPII to ScNAGK ([2]; 50 mM NAG, 10 mM ATP, without glutamine): approximately 4 fold
- increase of the overall NAGK catalytic efficiency by complex formation with PpPII ([2]; PpPII-complexed versus free ScNAGK): about 4 fold
- interaction with PipX (SPR) [3]: not observed
